According to patent US20200277369A1 (Novartis, published 2020):

Target: T1, human homodimer IL-17A (human, UniProt Q16552 24-155)
T1 construct: Homodimer as printed; also called interleukin-17A
Test: not stated (affinity given in running text of Example 1, no method)

T1 sequence (Q16552 24-155 limits assumed): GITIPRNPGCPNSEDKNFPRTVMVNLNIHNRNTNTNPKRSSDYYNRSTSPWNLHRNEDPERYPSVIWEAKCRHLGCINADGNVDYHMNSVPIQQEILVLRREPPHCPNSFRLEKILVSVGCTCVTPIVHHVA

B1: CJM112 (antibody, V domains shown)
VH: EVQLVESGGDLVQPGGSLRLSCAASGFTFSSYWMSWVRQAPGKGLEWVANIKQDGSEKYYVDSVKGRFTISRDNAKNSLYLQMNSLRAEDTAVYYCARDRGSLYYWGQGTLVTVSS
VL: AIQLTQSPSSLSASVGDRVTITCRPSQGINWELAWYQQKPGKAPKLLIYDASSLEQGVPSRFSGSGSGTDFTLTISSLQPEDFATYYCQQFNSYPLTFGGGTKVEIK
For B1, the Kd was 6 pM.
